Test results as given in article PMC7215387, “Comparison of Target Recognition by TRAF1 and TRAF2” (International Journal of Molecular Sciences, 2020).

Key:
Assay type in all cases: binding
TRAF2 [1] = target: T1, TRAF2 (Homo sapiens, UniProt Q12933); assay: Complex formation assay by gel-filtration (size-exclusion) chromatography with TRAF2; conditions: Superdex 200 10/30, 20 mM Tris pH 8.0, 150 mM NaCl; 1 h at 4 °C; peak around 14 mL
T1 construct: TRAF2 TRAF domain (amino acid residues 305-501); 6xHis (C); made in house; host or cells: E. coli BL21 (DE3)
T1 sequence (Q12933 305-501): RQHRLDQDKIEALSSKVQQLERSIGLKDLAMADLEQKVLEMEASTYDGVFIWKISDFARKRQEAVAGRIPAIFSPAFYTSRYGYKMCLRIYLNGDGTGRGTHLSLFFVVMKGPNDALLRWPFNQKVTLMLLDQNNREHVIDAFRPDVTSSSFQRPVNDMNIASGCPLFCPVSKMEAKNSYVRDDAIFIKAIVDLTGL
Source text: (§1) TRADD is a well-known regulator of the TRAF function. The death domain located at the C-terminus of TRADD interacts with death-domain containing receptors and adaptor proteins including TNFR, receptor interacting protein 1 (RIP1) and Fas-associated death domain protein (FADD), while the N-terminal domain of TRADD (TRADD-N) interacts with the TRAF domain of TRAF2 (Figure 2a). Although several indirect interactions between TRAF1 and TRADD have been described, a direct interaction and direct analyses between TRAF1 and TRADD have not been reported. To directly study their interactions and binding properties, which may provide important clues for understanding TRAF-mediated signaling by TRADD, TRAFs and TRADD-N were purified, and initial interaction testing was performed by Native-PAGE. […] Although TRAF1 did interact with TRADD-N, this interaction was not as tight as with TRAF2 (Figure 2b). To further confirm this association, the interaction between the TRAFs and TRADD-N was further tested by size-exclusion chromatography. […]
(§2) Purified TRAF domains and TRADD-N proteins were mixed, incubated at 4 °C for 1 h, and concentrated to 4 to 5 mg/mL using a protein concentration kit (Millipore). […] Complex assembly was evaluated based on the positions of eluted protein peaks monitored at 280 nm followed by SDS-PAGE.

TRAF2 [2] = target: T1, TRAF2; assay: Native-PAGE complex formation with TRAF2; conditions: 8% to 25% acrylamide gradient gels, Coomassie; 1 h at 4 °C; TRAF2 TRAF domain (305-501)
Source text: as §1
The formation of complexes was assayed by native (non-denaturing) PAGE conducted on a PhastSystem (GE Healthcare) with pre-cast 8% to 25% acrylamide gradient gels (GE Healthcare). […] Complex formation was evaluated based on the appearance of newly formed bands or the disappearance of bands that were detected in single control protein bands.

TRAF1 = target: T2, TRAF1 (Homo sapiens, UniProt Q13077); assay: Complex formation assay by gel-filtration (size-exclusion) chromatography with TRAF1; conditions: Superdex 200 10/30, 20 mM Tris pH 8.0, 150 mM NaCl; 1 h at 4 °C; peak shift approximately 16 mL
T2 construct: the TRAF1 TRAF domain (amino acid residues 220-416); 6xHis (C); made in house; host or cells: E. coli BL21 (DE3)
T2 sequence (Q13077 220-416): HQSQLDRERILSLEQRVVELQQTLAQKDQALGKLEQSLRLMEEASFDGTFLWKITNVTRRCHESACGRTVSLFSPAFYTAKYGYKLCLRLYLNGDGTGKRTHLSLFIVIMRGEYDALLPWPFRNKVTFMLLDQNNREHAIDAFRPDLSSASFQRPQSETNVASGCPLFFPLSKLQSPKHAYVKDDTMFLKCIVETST
Source text: as §1, §2

B1: TRADD-N: N-terminal domain of TRADD (TRADD-N, amino acid residues 1-163) (protein)
chain: MAAGQNGHEEWVGSAYLFVESSLDKVVLSDAYAHPQQKVAVYRALQAALAESGGSPDVLQMLKIHRSDPQLIVQLRFCGRQPCGRFLRAYREGALRAALQRSLAAALAQHSVPLQLELRAGAERLDALLADEERCLSCILAQQPDRLRDEELAELEDALRNLK
modifications: left off: His6 (from the vector pET24a), C-terminal, state not stated
With B1 the “co-migration with TRAF2 in size-exclusion chromatography / SDS-PAGE” value (TRAF2 [1]) was “co-migrated well with TRADD-N at similar intensities”, the “Native-PAGE band change on incubation with TRAF2” value (TRAF2 [2]) was “the TRADD-N band was completely absent, forming a new complex band” and the “co-migration with TRAF1 in size-exclusion chromatography / SDS-PAGE” value (TRAF1) was “TRADD-N did not perfectly co-migrate with TRAF1”.
